The numbers were not newly measured in PMC4138051, which cites them from elsewhere.

Read-outs that look alike come from different tables or passages of the source.

For series [1], the target named is MLL MBM1 6-13 (Homo sapiens) (UniProt Q03164).
Series [2] addresses MLL 1-160 (Homo sapiens) (UniProt Q03164).
Series [3] shares this target. The source holds these as a separate data set.
Series [4] concerns the target MLL MBM2 24-40 (Homo sapiens) (UniProt Q03164).

What is called Kd is the free concentration of one partner at which half of the binding sites on the other are occupied at equilibrium, for simple one-to-one binding. For menin (from UniProt O00255), the Kd in series [1] is 56 nM; in series [2] it was 1500 nM; in series [3], 10 nM; in series [4], 1000 nM.
